In paper PMC11364227:

molecular target: SARS-CoV-2 prototype-Beta RBD-dimer PB (two truncated RBDs, 329-537, in tandem) (SARS-CoV-2 (prototype) | SARS-CoV-2 (Beta variant)) (UniProt P0DTC2); test: SPR

| Substance | Kd |
| --- | --- |
| C022 | 5.1 nM |
| CR3022 | 293 nM |
| S2H97 | 1.6 nM |
| S2K146 | 4 nM |
| S309 | 7.6 nM |
| SA55 | 6.6 nM |
| XGv347 | 0.2 nM |
